Tests used:
[1] = molecular target: T1, C. elegans UNC-13 long isoform residues 1-258 bearing the K49E mutation (C. elegans, UniProt P27715 1-258, K49E); assay: ITC
T1 sequence: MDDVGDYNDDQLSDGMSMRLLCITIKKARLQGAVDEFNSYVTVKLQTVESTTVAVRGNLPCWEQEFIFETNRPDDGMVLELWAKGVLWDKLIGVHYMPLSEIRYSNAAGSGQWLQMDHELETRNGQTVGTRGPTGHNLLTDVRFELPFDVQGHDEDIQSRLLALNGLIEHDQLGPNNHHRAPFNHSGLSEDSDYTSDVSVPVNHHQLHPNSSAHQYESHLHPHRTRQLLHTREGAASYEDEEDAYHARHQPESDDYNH

[2] = molecular target: T2, C. elegans UNC-13 long isoform residues 1-258 bearing the K49E mutation (C. elegans, UniProt P27715 1-258, K49E); assay: ITC; Nano ITC (TA Instruments), 20 mM HEPES pH 7.5, 150 mM NaCl, 25°C; one site independent binding model; UNC-13L 1-258 K49E at 21 µM, UNC-10 62-121 WT at 140 µM or K77/79E at 116 µM; settings: both partners purified
T2 construct: UNC-13 long isoform, C. elegans, residues 1-258 with K49E; expressed from pGEX6p1; Residues left by HRV3C cleavage of the pGEX6p1 fusion are not described; also called UNC-13L residues 1-258; UNC-13L C2A domain; source: E. coli Rosetta2 (DE3), purified (glutathione sepharose, HRV3C cleavage on beads, Superdex 75)
T2 sequence (looked up): T1 sequence

B1: C. elegans UNC-10 residues 62-121 WT (domain or fragment, UniProt Q22366 62-121, looked up)
chain: KLVGTQDDAICQICQKTKFADGIGHKCFYCQLRSCARCGGRAQSKNKAIWACSLCQKRQQ
notes: expressed from pGEX6p1; also called UNC-10/RIM ZF domain; source: E. coli Rosetta2 (DE3), grown with ZnSO4, purified (glutathione sepharose, HRV3C cleavage on beads, Superdex 75)
Ka [1]: 789000 M⁻¹
Kd [2]: 1290 nM
